# Source: patent publication US20120093921A1, “IMMUNOGENIC COMPOSITIONS HAVING LOW SODIUM CHLORIDE CONCENTRATION” (GLAXOSMITHKLINE BIOLOGICALS S.A., priority 2009, published 2012)
# Columns and labels:
# [1] = Salting out / precipitation of antigen on reconstitution in adjuvant buffer (visual); assay type: physicochemical
# Protocol: Accordingly, in one embodiment the antigen or antigenic preparation is any antigen which precipitates, coagulates or aggregates after being dissolved in a solution comprising a concentration of sodium chloride (NaCl) or wherein the ionic strength of the solution is greater than 5 mM, 10 mM, 15 mM, 20 mM, 30 mM, 40 mM, 50 mM, 60 mM, 70 mM, 80 mM, 90 mM or 100 mM. The person skilled in the art can determine whether an antigen meets this definition by dissolving and/or mixing an antigen in such a solution. […] An antigen which precipitates, coagulates or aggregates after being dissolved in a solution comprising a concentration of sodium chloride of 100 mM is one which, after 24 hours or less, can be seen to be precipitating by the cloudiness of the solution. In addition, aggregation that is not detectable visually may be observed using methods known to the skilled person which include, but are not limited to SEC-HPLC.
# The resulting lyophilsation cake was reconstituted with 625 μl of aqueous adjuvant composition prepared as in Example 2 comprising 150 mM NaCl. The lyophilsation cake contained a 1.25 fold excess of antigen dose to have the right antigen/adjuvant ratio after reconstitution with a final composition of 16 mM Tris, 4 mM borate, 4% sucrose, 0.24% Poloxamer 188, 840 μg/ml CpG and 1000 μg/ml PRAME.
# The resulting lyophilsation cake was reconstituted with 625 μl of ASA buffers (150 mM NaCl and sorbitol).
# 1. PRAME antigen reconstituted in ASA 150 mM NaCl buffer. 2. PRAME antigen reconstituted in ASA sorbitol buffer. 3. NYESO-1 antigen reconstituted in ASA 150 mM NaCl buffer. 4. NYESO-1 antigen reconstituted in ASA sorbitol buffer.
# FIG. 4 is a photographic comparison between PRAME and NYESO-1 reconstituted in ASA (150 mM NaCl) and ASA (sorbitol). […] Similarly, NY-ESO reconstituted in ASA (150 mM NaCl) appears cloudy compared to NY-ESO antigen reconstituted in ASA (sorbitol).
# [2] = test system: chicken Red Blood cells (RBC); experiment: QS21 lytic activity, haemolysis assay (limit test); assay type: cell-based; settings: example curve; OD of 0.12
# Protocol: QS21 is known to lyse red blood cells (RBC).
# QS21 lytic activity was measured by a haemolysis assay using chicken Red Blood cells (RBC). RBC were centrifuged at 550 g at 4° C. Supernatant was discarded. The pellet was carefully resuspended in PBS buffer to reach the initial volume and the same operation was repeated until supernatant was no longer red (generally 3 times). The pellet was stored at 4° C. for 3 to 4 days maximum if not used directly (and washed again the day it is used) or was diluted around 10 times in buffer if used the same day.
# A QS21 dose range curve was prepared in ASA buffer (in salt or in sorbitol buffer following the ASA sample tested) extemporaneously and the adjuvant samples (containing a 50 μg or 90 μg equivalent of QS21 meaning the equivalent of 500 μl or 900 μl ASA) were prepared. Final volume was adjusted to 900 μl in standards and samples with adequate buffer (containing or not sorbitol as a function of the buffer of the sample tested). Due to its opalescence, ASA interferes in optical density (OD). […] Optical density at 540 nm was measured after centrifugation. […]
# 1. Limit of detection (LOD) was defined as the lowest concentration of QS21 leading to an OD: • Higher than the base level (OD>0.1) • Around three times higher than OD's buffer (the “o μg” QS21) • In the ascendant part of the curve • Determined for each test. […]
Substance,"appearance after reconstitution ([1]; lyophilised with CpG, reconstituted in ASA (150 mM NaCl), compared to ASA (sorbitol), FIG. 4)","salting out in adjuvant composition ([1]; salt concentration reduced to 5 mM and sorbitol included (ASA sorbitol buffer), FIG. 4)","concentration of sodium chloride at which the antigens aggregate and precipitate ([1]; salting out, as low as) [µM]",Limit of Detection (lowest concentration of QS21 leading to OD above base level) [2] [µg]
"PRAME: tumour protein antigen, described in U.S. Pat. No. 5,830,753; co-lyophilised with CpG 2006 in the examples",cloudy,prevents “salting out”,150000,–
QS21,–,–,–,0.9
